In PMC8692893:
Where “and” joins values, the source holds several entries; their conditions need not be identical. Equal entries are not always repeated. Each block holds one substance with its values, some of them ahead of it.

Experiments:
[1] = target: IgM in bamboo shark plasma (Chiloscyllium plagiosum (endogenous in plasma)); assay: non-reducing SDS-PAGE and SDS-agarose gel electrophoresis with Western blot; 1 µl plasma heated at 65°C for 10 min in SDS-loading buffer without reducing agents; 5% SDS-PAGE; 1.5% agarose gel with 0.1% SDS in the running buffer for plasma proteins larger than 300 kDa; blots probed with anti-IgNAR pAb or anti-IgM [Z69]; multimers counted in Ig monomers by molecular weight
[2] = target: IgW in bamboo shark plasma (Chiloscyllium plagiosum (endogenous in plasma)); assay: non-reducing gel electrophoresis with Western blot (data not shown); IgW multimers in plasma, data not shown; anti-IgW [V43]
[3] = target: immunoglobulin new antigen receptor (IgNAR), secretory, in bamboo shark plasma (Chiloscyllium plagiosum (endogenous in plasma)); assay: non-reducing SDS-PAGE and SDS-agarose gel electrophoresis with Western blot; 1 µl plasma heated at 65°C for 10 min in SDS-loading buffer without reducing agents; 5% SDS-PAGE; 1.5% agarose gel with 0.1% SDS in the running buffer for plasma proteins larger than 300 kDa; blots probed with anti-IgNAR pAb or anti-IgM [Z69]; multimers counted in Ig monomers by molecular weight

stoichiometry N [1]: 5
Substance: IgM in bamboo shark plasma (natural protein)

stoichiometry N [2]: 5 and 2
Substance: IgW in bamboo shark plasma (natural protein)

stoichiometry N [3]: 3 and 4 and 5
Substance: immunoglobulin new antigen receptor (IgNAR), secretory, in bamboo shark plasma (natural protein)
